Experimental findings from the nanobody polyreactivity screen of Harvey et al. (2022) are described below.

This data set is described as follows: yeast display, Sf9 membrane polyspecificity reagent, FACS + sequencing; frameworks hold sequencing errors. The essentials:
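A nanobody's polyreactivity label depends on the gate it was sorted from. Yeast display cells were stained with 10% biotinylated, detergent-solubilized Sf9 membrane reagent for 1 hour at 4 °C, enriched on streptavidin microbeads and sorted by FACS. The low and high (top ~1%) gates were set on anti-HA fluorescence for expression and streptavidin fluorescence for reagent binding.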
For “QVQLVESGGGLLQAGGSLRLSCAASGSIFYGYAMGWYRQAPGKERELVAAITRGGGTYYADSVKGRFTNSRDNAKITVYLQMNSLKPEDTAVYYCALSFYRRYTPYDYWGQGTQLTVSS”, the “polyreactivity (PSR sort gate)” value is “high polyreactivity”.
Regarding “QVQLVESGGGLLQAGGSLRLSCAASGSNFVAYAMGRYRQAPGKERELVAAITYSGGGTYYADSVKGRCTISRDNAKNTVYLLMNSLKPEDTALYYCNAVGGIYDFDYCGQGTQVTVSS”, the “polyreactivity (PSR sort gate)” value is given as “high polyreactivity”.
On to “QVQLVESGGGLLQAGGSLRLSCAASGSTFGFYALGWFRQAPGKERELVAAISSGGTSTYYADSVKGRFTISRDNAKTTVYLQMNSVIPEDTAVYYCNSDTFQYPSTYDYWGQGTQVTVSS”, for which the “polyreactivity (PSR sort gate)” value was “low polyreactivity”.
As for “QVQLVESGGGLLQAGGSLRLSCAASGSTFSRYTMGWYRQAPGKERELVAAISYRGGSTYYADSVKGRFTISRDNAKNTVYLQMNSLKPEDTAVYYCAAEFRVEGSDYDYWGQGTQVTVSS”, the entry is “low polyreactivity”; as for “QVQLVESGGGLLQAGGSLRLSCAASGSTFYFYARGWYRQAPGKERELVAAITGSGGSTYYAVYVKGRFTISRDNSRNSVYLQMKSVKPEDTAVYYCAAGWWYYVHMDYWGQGTQVTVSS”, “high polyreactivity”; as for “QVQLVESGGGLLQAGGSLRLSCAASGYIFQYYAMGWYRQAPGKERELVAAITGGGSTKYADSVKGRFTISRDNAKNTVYLQMNSLKPEDTAVYYCAASLWYRISKYDYWGQGTQVTVSS”, “high polyreactivity”.
For “QVQLVESGGGLLQAGGSLRLSCASSGRTFKANAMVWYRQAPGKERELVAAISYSGGNTYYADSVKGRFTISRDNANNTVYLQMNSLKPEDTAVYYCARYYYLPVVDMDYWGQGTQVTVSS”, the “polyreactivity (PSR sort gate)” value was “high polyreactivity”.
Consider “QVQLVESGGGLLQAGGSLRLSCSATGSLFEGNGMGWYRQAPGKERELVASITRSGGSTYYADSVKGRFTISRDNAKNTVYLQINSLIPEDTAVYYCAAYPVRYYNQYDYWGLGTQVTVSS”, for which the “polyreactivity (PSR sort gate)” value is listed as “low polyreactivity”.
As for “QVQLVESGGGLLQAGGSLRLSFAASGRIYWNTMGWYRQAPGKERELVASISTGGGRTYYADSVKGRFTISRDNAKNTVYLQMNSLKPEDTAVYYCNADFISTRPPKATDEDYWGQGTQVTVSS”, the entry is “high polyreactivity”.
For the sequence “QVQLVESGGGLLQAGGSLRLSSAASGRIFYGNTMGWYRQAPGKERELVAAITWRGGSTYYADSVKGRFTISRDNAKNTVYLQMNSLKPEDTAVYYCAAVSYRGRGYWGQGTQVTVSS”, the “polyreactivity (PSR sort gate)” value is given as “high polyreactivity”.
For the sequence “QVQLVESGGGLLQAGGSLRLTCAASGFTFSLNTMGWYRQAPAKEREFVAAINSGDSTYADSVKGRYTISRDNAKNTVYLQMNSLKPEDTAVYYCNADPDWWYPYNYWGQGTQVTVSS”, the “polyreactivity (PSR sort gate)” value is “low polyreactivity”.
As for “QVQLVESGGGLLQAGGSLRLTCAASGRIFGRYAMGWYRQAPGKERELVAAISYSGGSTRYADSVKGRFTISRDNSKNTVYLQMNSLKPEDTAVYYCAAARRFSTHEYWGQGTQVTVSS”, the “polyreactivity (PSR sort gate)” value is on record as “high polyreactivity”.
For the sequence “QVQLVESGGGLVEAGGSLRLSCAASGFIFSSYVMGWYRQAPGKERELVAAITSGNSTYYADSVKGRFTISRDNAKTTVYLQMNSLKPEDTAVSYCTADSYHTYYYWYDYWGQGTQVTVSS”, the “polyreactivity (PSR sort gate)” value was “low polyreactivity”.
Take “QVQLVESGGGLVEAGGSLRLSCAASGFTFHYYTMGWYRQAPVKERELVASINYSGGRTYYADSVKGRFTISRDIAMNTVYLQMNSLKPEDTAVYYCNARYKSTYYYWGQGTQVTVSS”: the “polyreactivity (PSR sort gate)” value was “high polyreactivity”.
As to “QVQLVESGGGLVEAGGSLRLSCAASGRIFLSYAMGWYRQAPGKERELVATITDRGGRTYYADSVKGRFTISRDNAKNTVYLQMNSLKAEDTAVDYCAAGLVYRGYRRDYWGQGTQVTVTS”, the “polyreactivity (PSR sort gate)” value was “low polyreactivity”.
Consider “QVQLVESGGGLVEAGGSLRLSCAAYGRTFDYYDMGWYRPAPGKERELVAGITVSSGGTNYADSVKGRFTISRDNAKNTVYLQMNSLNPEDTAVYYCADANYDFYAFDSTYRYNYWGQGTQVTVSS”, for which the “polyreactivity (PSR sort gate)” value was “low polyreactivity”.
Regarding “QVQLVESGGGLVEAGGSLRLSGAASGRSFGIYAMGWYRQAPGKERELVAAITWSGDSTYYADSVKGRFTISRDNAKKTVYLQMNILKPEDTAVYYCAADDVGVTSVRYDYWGQGTLVTVSS”, the “polyreactivity (PSR sort gate)” value is reported as “low polyreactivity”.
Under “QVQLVESGGGLVEAGGSLRLTCAAYGSIFSAYAMGWYRAAPGKERELVAAITRGTSTNYADSVKGRFTISRDNAKNTVYLQMNSLKPEDTAVYYCAVGYNSKLAVGMYYWGLGTQVTVSS” stands “low polyreactivity”.
For the sequence “QVQLVESGGGLVEAGVSLRISCAASGRIFAYNTMGWYRQAPGKERELVAAISWRGGSTYYADSVKGRFTISRDNEKNSVHLQRNSLKPEDTAVYYCAVLSSSLTRFDYWGQGSQVTVSS”, the “polyreactivity (PSR sort gate)” value is on record as “high polyreactivity”.
As for “QVQLVESGGGLVEEGGSLRLSCAASGSIFSANALGWYRQAPGKERELVACITGDGSTNYADSVKGRFTISRDNAKNTVYLQMNSLKPEDTAVYYCAADIGSWYDYWGQGTQVTVSS”, the “polyreactivity (PSR sort gate)” value is “low polyreactivity”.
Regarding “QVQLVESGGGLVHAAGSLRLSCAASGRTFRYNTMGWYRQASGKESELVARITRSGGSTYYADSVKGRFTISRDNAKNTVYLQMNSLKPEDTAVYYCAAVPILVYRWFQYYTGDYDYWGQGTQVTVSS”, the “polyreactivity (PSR sort gate)” value is “low polyreactivity”.
Take “QVQLVESGGGLVHAGCSLRLSCSASGRISGYAMGWYRQAPGKERELVAAISKSAARTYYADSVKGRFTISRDNAKNTVYLQMNSLKAEDTAVYYCAADKPYRYDYWGQGTQVTVSS”: the “polyreactivity (PSR sort gate)” value is recorded as “high polyreactivity”.
Take “QVQLVESGGGLVHAGGILSLSSAASGFTIGYYSMGWYRQAPGKERELVAAINWSGGRTYYGDSVKGRFTISRDIAKNTVYFQMTSLKPEDTAVYYCAADPNKGRQMYYWGQGSQVTVSS”: the “polyreactivity (PSR sort gate)” value is listed as “high polyreactivity”.
Under “QVQLVESGGGLVHAGGRLRLSCAASGRIFYTYTMGWYSQAPGKERELVATITDGTRTNYADSVKGRFTISRDNAKITVYLQMTSLQPEDTAVYYCNAAGRWHDLYRINYDYWGQGTKVTVSS” stands “low polyreactivity”; under “QVQLVESGGGLVHAGGRLRLSCAASGRISGYAMAWYRQAPRTERELVAAISTRGGTTYYADSVKGRFTISRDNAKNTVYLQMNSLKPEDTAVYFCNAASSRWPEYDFWGQGTQVTVSS”, “high polyreactivity”; under “QVQLVESGGGLVHAGGSHRLSCAASGFSFKSYAMGWYRQAPGKERELVAAISRRCGSTNYADSVKGRFTISRDNAKNTVYLQMNSLKPEDTAVYYCNADPYNSPYQVSGPYKEDYDYWGQGTQVTVSS”, “high polyreactivity”.
Turning to “QVQLVESGGGLVHAGGSLGLSCAASGSIFYEYVMGWYRQAPGKERELVATIDLNGGSTTYADSVKGRFTISRDNAKNTDYLQMNSLKPEDTAVYYCAAQTGFVSHFFWHYDYWGQGSQVTVSS”, the “polyreactivity (PSR sort gate)” value is given as “low polyreactivity”.
Consider “QVQLVESGGGLVHAGGSLRLSCAASGFIFNFYAMGWYRQAPGKERELVAAISRTGGSTYYADSVKGRFTISRDNAKNTVYLQMNSLKPEDTAVYYCNAGCGFRSYGYDPWGQGTQVTVSS”, for which the “polyreactivity (PSR sort gate)” value was “high polyreactivity”.
For “QVQLVESGGGLVHAGGSLRLSCAASGFILTGYTMGWYRQAPGKEMELVAAISYRGGSTYYADSVKGRFTISRDNAKNTVYLQMNSLKPEDTAVYYCNAVWSNFRLGYDYWGQGTQVTVSS”, the “polyreactivity (PSR sort gate)” value is given as “high polyreactivity”.
As for “QVQLVESGGGLVHAGGSLRLSCAASGFTFEYNAMGWYRQAPGKERELVAVITYRGGSTYYADSVKGRFTISRDNAKHTVYLQMNSLKPEDTAVYYCAADSVTYGGDYWGQGTQVTVSS”, the entry is “high polyreactivity”; as for “QVQLVESGGGLVHAGGSLRLSCAASGFTFRGYAMGWYRPSPGKEREFVAAISRSGGSTNYADSVKGRFTISRDNAKNTVYLQMNSLKPEDTAVYYCAAGWNPYDYWGQGTQVTVSS”, “high polyreactivity”.
For “QVQLVESGGGLVHAGGSLRLSCAASGFTFRYGMGWYRQAPRKERELVAAISNTGGSTYYADSVKGRFTISRDNAKNTVYLKMNSLKPEDTSVYYCAAAGGLWWVFYALDYWGQGTQVSVSS”, the “polyreactivity (PSR sort gate)” value was “low polyreactivity”.
On to “QVQLVESGGGLVHAGGSLRLSCAASGFTFYYYAMGWYRPAPGKERELVAAISSRGGNSYYADSVKGRFTISRDNAKNTVYLQMNSLKPEDTAVYYCASVPLKYDYWGQGTQVTVSS”, for which the “polyreactivity (PSR sort gate)” value is recorded as “high polyreactivity”.
Regarding “QVQLVESGGGLVHAGGSLRLSCAASGFTIRSYVMGWYRQAPGKERELVAAIRRSGGSTYYADSVKGRFTISRDNAKNTVYLQMNCLKPEDTAVYYCNADIRAYTVLTGGYIYDYWGQGTQVTVSS”, the “polyreactivity (PSR sort gate)” value is on record as “high polyreactivity”.
With “QVQLVESGGGLVHAGGSLRLSCAASGGTFSLNAMGWYRKAPGTERELVAAISKRSSTTYYADSVKGRFTISRDNAKNTVYLQMNSLKPEDTSVYYCAARVLRSRKPGRGYDYWGQGTQVTVSS”, the “polyreactivity (PSR sort gate)” value is recorded as “high polyreactivity”.
With “QVQLVESGGGLVHAGGSLRLSCAASGILFGYYAIGWYRQAPGKERELVAAITSGSSTDYADSVKGRFTISRDNAKNTFYLQMNSLKPEDTAVYYCNAVTSASTYTFPFDYWGQGTQVTVSS”, the “polyreactivity (PSR sort gate)” value was “low polyreactivity”.
As for “QVQLVESGGGLVHAGGSLRLSCAASGITFEGNAMGWNRQAPGTERELVAAIRSSGTSTYYADSVKGRFTFSRDNEKKTVYLQMNSLKPEDTAVYYCNRARSSSRYDYWGEGTQVTVSS”, the entry is “low polyreactivity”; as for “QVQLVESGGGLVHAGGSLRLSCAASGITFVYYAMGWYRQAPGKERELVAAIDDTGTTYYADSVKGRFTISRDNAKNTVYLQMNSLKPEDTAVYYCAADDWGWFFGGGDYWGQGTQVTVSS”, “high polyreactivity”.
Regarding “QVQLVESGGGLVHAGGSLRLSCAASGKIFGLYAMGWYRKAPGKERELVAAISYRTDSTYADSVKGRFTISRDNAKNTVYLQMNSLKPEDTAVYYCAADLRVSVRYYYWGQGTQVTVSS”, the “polyreactivity (PSR sort gate)” value is on record as “low polyreactivity”.
As for “QVQLVESGGGLVHAGGSLRLSCAASGLTFGAYAMGWYRQAPGEERELVATITNSGRTYYADSVKGRFTISRDNAKNTVYLQMNSLKPEDTAVYYCAAQPDGQAMDHWGQGTQVTVSS”, the entry is “low polyreactivity”.
Regarding “QVQLVESGGGLVHAGGSLRLSCAASGLTFVDNAMGWYRQAPGKERELVAAITKRGGRTYYADSVKGRFTISRDNAKNTVYSQMNSLKPEDTAVYYCAREAGNDSSRRLDYWGQGTQVTVSS”, the “polyreactivity (PSR sort gate)” value was “low polyreactivity”.
